Results from patent publication US12383631 (BRIGHT PEAK THERAPEUTICS, dated 2025).
One block for each binder: values may come before it.

B3: recombinant Human Fc gamma RI/CD64 Protein (R&D systems, 1257-FC-050) (receptor)
chain: QVDTTKAVITLQPPWVSVFQEETVTLHCEVLHLPGSSSTQWFLNGTATQTSTPSYRITSASVNDSGEYRCQRGLSGRSDPIQLEIHRGWLLLQVSSRVFTEGEPLALRCHAWKDKLVYNVLYYRNGKAFKFFHWNSNLTILKTNISHNGTYHCSGMGKHRYTSAGISVTVKELFPAPVLNASVTSPLLEGNLVTLSCETKLLLQRPGLQLYFSFYMGSKTLRGRNTSSEYQILTARREDSGLYWCEAATEDGNVLKRSPELELQVLGLQLPTP
notes: detected with an anti-His antibody; tag not described; also called FcγRI/CD64; human Fc gamma receptor I

How the values were obtained:
[1] = biological target: T1, IL-18 receptor (IL-18Rα/IL-18Rβ) on cells (HEK-Blue IL18R reporter cells, NK-92, KG-1) (human, UniProt Q13478 19-541; O95256 20-599); assay: cell-based or functional assay
T1 sequence (looked up) 1: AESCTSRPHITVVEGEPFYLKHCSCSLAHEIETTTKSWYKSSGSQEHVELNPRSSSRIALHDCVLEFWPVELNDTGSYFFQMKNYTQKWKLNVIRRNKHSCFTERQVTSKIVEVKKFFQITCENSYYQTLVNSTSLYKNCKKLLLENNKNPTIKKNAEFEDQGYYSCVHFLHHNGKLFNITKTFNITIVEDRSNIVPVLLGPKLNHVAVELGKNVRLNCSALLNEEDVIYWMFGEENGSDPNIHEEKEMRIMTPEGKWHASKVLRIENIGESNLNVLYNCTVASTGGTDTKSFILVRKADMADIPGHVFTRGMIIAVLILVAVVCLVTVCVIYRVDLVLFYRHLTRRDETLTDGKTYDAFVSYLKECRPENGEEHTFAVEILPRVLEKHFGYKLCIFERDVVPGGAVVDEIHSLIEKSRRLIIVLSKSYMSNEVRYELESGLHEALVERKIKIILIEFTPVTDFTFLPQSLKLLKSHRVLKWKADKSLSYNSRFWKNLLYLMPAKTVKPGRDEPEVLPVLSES
T1 sequence (looked up) 2: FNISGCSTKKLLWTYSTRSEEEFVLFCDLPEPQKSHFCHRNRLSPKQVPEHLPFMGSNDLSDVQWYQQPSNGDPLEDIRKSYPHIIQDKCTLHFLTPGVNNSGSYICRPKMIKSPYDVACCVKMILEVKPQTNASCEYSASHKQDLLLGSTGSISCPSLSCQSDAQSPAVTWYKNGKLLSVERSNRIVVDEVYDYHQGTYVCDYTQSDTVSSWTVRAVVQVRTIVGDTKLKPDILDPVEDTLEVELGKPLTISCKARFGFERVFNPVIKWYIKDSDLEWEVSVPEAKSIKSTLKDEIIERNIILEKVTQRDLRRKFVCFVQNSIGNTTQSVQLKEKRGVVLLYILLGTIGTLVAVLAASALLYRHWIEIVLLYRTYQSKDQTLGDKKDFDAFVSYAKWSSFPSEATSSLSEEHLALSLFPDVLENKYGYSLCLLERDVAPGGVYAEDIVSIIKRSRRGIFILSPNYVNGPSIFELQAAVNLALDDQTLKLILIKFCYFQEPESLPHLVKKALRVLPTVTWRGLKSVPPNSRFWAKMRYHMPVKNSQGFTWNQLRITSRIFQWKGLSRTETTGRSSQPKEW

human IL-18BP-His = biological target: T2, human IL-18BP-His (human, UniProt O95998 31-194, limits assumed); assay: AlphaLISA of free IL-18BP
T2 construct: also called His-tagged human IL-18BP; not shown: His tag
T2 sequence (looked up): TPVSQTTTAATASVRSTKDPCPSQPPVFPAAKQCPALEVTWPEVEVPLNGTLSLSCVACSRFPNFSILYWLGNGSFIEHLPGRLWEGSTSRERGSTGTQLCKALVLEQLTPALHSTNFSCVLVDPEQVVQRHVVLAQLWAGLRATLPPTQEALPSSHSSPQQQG

[2] = biological target: T1, IL-18 receptor (IL-18Rα/IL-18Rβ) on …; assay: cell-based or functional assay; remark: listed apart in the source
[3] = biological target: T1, IL-18 receptor (IL-18Rα/IL-18Rβ) on …; assay: cell-based or functional assay; remark: listed apart in the source
[4] = biological target: T3, Composition B (Atezolizumab/Tecentriq conjugated to IL-18 polypeptide of SEQ ID NO: 30) (human, UniProt P0DOX5 2-449 = IgG part; P0DOX7 1-214; Q14116 37-193, chemical linker to the antibody; site not stated for this composition; chemical linker to IL-18; site not stated for this composition); assay: ELISA; immunocytokine coated, receptor titrated, anti-His-HRP
T3 construct: immunocytokine
Method: (§1) The interaction of the unmodified and of conjugated antibodies with human Fc gamma receptors I (FcγRI/CD64), with human Fc gamma receptors IIa (FcγRIIa/CD32a), with inhibitory human Fc gamma receptors IIb (FcγRIIb/CD32b), and with human Fc gamma receptors III FcγRIIIa/CD16 were measured by ELISA.
Briefly, Corning high-binding half-area plates (Fisher Scientific, Reinach, Switzerland) were coated overnight at 4° C. with 25 μl of unmodified and of conjugated anti-PD1 antibodies at 2.5 μg/ml in PBS. Plates were then washed four times with 100 μl of PBS-0.02% Tween20. Plates surfaces were blocked with 25 μl of PBS-0.02% Tween20-1% BSA at 37° C. during 1 h. Plates were then washed four times with 100 μl of PBS-0.02% Tween20. […] ELISA signal was then measured at 450 nm on an EnSpire plate reader from Perkin Elmer (Schwerzenbach, Switzerland). Binding Affinity of Reference Antibodies and Immunocytokines with Human Fc Gamma Receptors as Measured by ELISA

[5] = biological target: T4, recombinant biotinylated human FcRn (human, UniProt P55899 24-297; P61769 21-119, limits assumed, biotinylated); assay: AlphaLISA competition at pH 6; competitor: human IgG on acceptor beads
T4 construct: also called human neonatal Fc receptor (FcRn)
Method: The interaction of the unmodified and of conjugated anti-PD1 antibodies with the human neonatal Fc receptor (FcRn) at pH 6 was measured using the AlphaLISA® Human FcRn Binding Kit (AL3095C) from Perkin Elmer (Schwerzenbach, Switzerland).
After 90 min at 23° C. in the dark, AlphaLISA® signal was measured on an EnSpire plate reader (Excitation at 680 nm, Emission at 615 nm) from Perkin Elmer (Schwerzenbach, Switzerland). Binding Affinity of Reference Antibodies and Immunocytokines with the Human Neonatal Fc Receptor as Measured by AlphaLISA

[6] = biological target: T5, recombinant Human Fc gamma RIIIA/CD16a Protein (R&D systems, 4325-FC-050) (human, UniProt P08637 17-208); assay: ELISA; antibody coated, receptor titrated, anti-His-HRP
T5 construct: detected with an anti-His antibody; tag and allotype not described; also called FcγRIIIa (CD16)
Method: as §1
(§2) Briefly, Corning high-binding half-area plates (Fisher Scientific, Reinach, Switzerland) were coated overnight at 4° C. with 25 μl of unmodified and of conjugated anti-PD1 antibodies at 2.5 μg/ml in PBS. Plates were then washed four times with 100 μl of PBS-0.02% Tween20. Plates surfaces were blocked with 25 μl of PBS-0.02% Tween20-1% BSA at 37° C. during 1 h. Plates were then washed four times with 100 μl of PBS-0.02% Tween20. Then twenty-five microliters of either recombinant Human Fc gamma RI/CD64 Protein (R&D systems, 1257-FC-050, CF), recombinant Human Fc gamma RIIA/CD32a (H167) Protein (R&D systems, 9595-CD-050, CF), recombinant Human Fc gamma RIIB/CD32b Avi-tag Protein (R&D systems, AVI1875-050, CF), or recombinant Human Fc gamma RIIIA/CD16a Protein (R&D systems, 4325-FC-050; CF) were added in five-fold serial dilutions ranging from 1000 nM to 0.001 nM into PBS-0.02% Tween20-0.1% BSA and incubated at 37° C. during 2 h. Plates were then washed four times with 100 μl of PBS-0.02% Tween20. Twenty-five microliters of a 1/500 HRP-anti-His antibody in PBS—0.02% Tween20-0.1% BSA (R&D systems, anti-HIS—HRP Ab, #MAB050H) were added to each well and plates were incubated at Room Temperature during 1 h. Plates were then washed four times with 100 μl of PBS-0.02% Tween20. Fifty microliters of TMB substrate reagent (#CL07, Merck, Buchs, Switzerland) were added to each well and incubated at 37° C. during 5 min. After 5 min at 37° C., Horseradish peroxidase reaction was stopped by adding 50 μl/well of 0.5M H2SO4 stop solution. ELISA signal was then measured at 450 nm on an EnSpire plate reader from Perkin Elmer (Schwerzenbach, Switzerland). Binding Affinity of Reference Antibodies and Immunocytokines with Human Fc Gamma Receptors as Measured by ELISA

[7] = biological target: B3; assay: as above
Method: as §1, §2

Binder: B3
Kd [4]: 10.8 nM

B5: Avelumab/Bavencio (antibody, human IgG1, lambda)
heavy: not shown
light: QSALTQPASVSGSPGQSITISCTGTSSDVGGYNYVSWYQQHPGKAPKLMIYDVSNRPSGVSNRFSGSKSGNTASLTISGLQAEDEADYYCSSYTSSSTRVFGTGTKVTVLGQPKANPTVTLFPPSSEELQANKATLVCLISDFYPGAVTVAWKADGSPVKAGVETTKPSKQSNNKYAASSYLSLTPEQWKSHRSYSCQVTHEGSTVEKTVAPTECS
notes: also called MSB-0010718C
Kd [5]: 5.36 nM

The remaining lines, values ahead:

EC50, HEK-Blue IL18R reporter cells [1]: 0.000203 nM
Kd (human IL-18BP-His): 24.8 nM
EC50, IFNγ stimulation, NK92 cells [2]: 0.006 nM
EC50, IFNγ secretion, NK92 cells [3]: 0.008 nM
B1: IL-18 polypeptide of SEQ ID NO: 60 (E6K, C38Q, K53A) (ligand)
chain: YFGKLKSKLSVIRNLNDQVLFIDQGNRPLFEDMTDSDQRDNAPRTIFIISMYADSQPRGMAVTISVKCEKISTLSCENKIISFKEMNPPDNIKDTKSDIIFFQRSVPGHDNKMQFESSSYEGYFLACEKERDLFKLILKKEDELGDRSIMFTVQNED

Kd [4]: 1740 nM
B2: recombinant Human Fc gamma RIIA/CD32a (H167) Protein (R&D systems, 9595-CD-050) (receptor)
chain: AAPPKAVLKLEPPWINVLQEDSVTLTCQGARSPESDSIQWFHNGNLIPTHTQPSYRFKANNNDSGEYTCQTGQTSLSDPVHLTVLSEWLVLQTPHLEFQEGETIMLRCHSWKDKPLVKVTFFQNGKSQKFSHLDPTFSIPQANHSHSGDYHCTGNIGYTLFSSKPVTITVQVPSMGSSSPMGI
notes: detected with an anti-His antibody; tag not described; also called FcγRIIa (CD32a)

Kd [5]: 7.45 nM
Kd [6]: 1660 nM
Kd [7]: 0.593 nM
B4: Pembrolizumab/Keytruda (antibody, human IgG4 S228P, kappa)
heavy: not shown
light: EIVLTQSPATLSLSPGERATLSCRASKGVSTSGYSYLHWYQQKPGQAPRLLIYLASYLESGVPARFSGSGSGTDFTLTISSLEPEDFAVYYCQHSRDLPLTFGGGTKVEIKRTVAAPSVFIFPPSDEQLKSGTASVVCLLNNFYPREAKVQWKVDNALQSGNSQESVTEQDSKDSTYSLSSTLTLSKADYEKHKVYACEVTHQGLSSPVTKSFNRGEC
notes: also called Lambrolizumab; MK-3475
